From patent publication US20150064174A1 (BRIGHAM AND WOMEN S HOSPITAL, published 2015) come the findings set out here.

The test has as its target T1, Epstein-Barr virus (EBV)-encoded glycoprotein 350 (gp350) (Epstein-Barr virus, UniProt P03200 1-860).
T1 construct: also called EBV gp350; column-purified EBV gp350 protein
T1 sequence: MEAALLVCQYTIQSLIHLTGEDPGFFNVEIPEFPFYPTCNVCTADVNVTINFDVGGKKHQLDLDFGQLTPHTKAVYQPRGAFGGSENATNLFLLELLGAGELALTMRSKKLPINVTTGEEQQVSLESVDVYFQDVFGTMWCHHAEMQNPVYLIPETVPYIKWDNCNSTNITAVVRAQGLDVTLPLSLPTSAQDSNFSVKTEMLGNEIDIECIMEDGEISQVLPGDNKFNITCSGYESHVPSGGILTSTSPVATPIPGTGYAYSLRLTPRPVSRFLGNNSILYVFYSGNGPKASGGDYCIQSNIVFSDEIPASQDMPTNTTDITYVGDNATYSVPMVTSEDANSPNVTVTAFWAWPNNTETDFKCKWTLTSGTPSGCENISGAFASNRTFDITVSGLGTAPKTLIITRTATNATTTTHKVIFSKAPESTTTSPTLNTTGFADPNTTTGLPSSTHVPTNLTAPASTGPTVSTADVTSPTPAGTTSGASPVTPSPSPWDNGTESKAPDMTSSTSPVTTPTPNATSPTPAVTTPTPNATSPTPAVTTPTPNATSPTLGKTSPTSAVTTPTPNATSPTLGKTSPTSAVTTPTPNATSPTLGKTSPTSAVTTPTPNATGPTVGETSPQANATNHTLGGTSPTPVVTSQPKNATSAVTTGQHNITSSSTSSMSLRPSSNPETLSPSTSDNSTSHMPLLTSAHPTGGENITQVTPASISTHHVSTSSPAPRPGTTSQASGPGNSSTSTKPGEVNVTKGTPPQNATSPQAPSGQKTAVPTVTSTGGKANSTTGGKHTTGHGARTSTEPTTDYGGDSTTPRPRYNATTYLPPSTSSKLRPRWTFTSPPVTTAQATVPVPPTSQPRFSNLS
The test is described as follows: ELISA, plate-coated purified gp350, HEK293T supernatant, anti-human IgG-HRP. Background: ELISA stands for enzyme-linked immunosorbent assay.

B1: recombinant humanized (chimeric) 72A1 antibody, heavy chain 2 and lambda light chain (Vh2+L) (antibody, V domains shown)
VH: DVQLVESGGGLVQPGGSRKLSCAASGFTFSSFGMHWVRQAPEKGLEWVAYISSGSSTLHYADTVKGRFTISRDNPKNTLFLQMTSLRSEDTAMYYCARWGNYPHYAMDYWGQGTSVTVSS
VL: QAVLTQESALTTSPGETVTLTCRSSTGAVTTSNYANWVQEKPDHLFTGLIGGTNNRVPGVPARFSGSLIGDKAALTITGAQTEDEAIYFCVLWHSNHWVFGGGTKLTVL
notes: Murine variable regions on human IgG1 (pCIRN) and human IgK (pEIG) constant regions; HEK293T supernatant
On to B1, for which the binding result is “no binding (tested: supernatant diluted 1:2)”.
